Results: publication PMC7474647 (Proceedings of the National Academy of Sciences of the …, 2020)

Molecular target: the molecule itself
Experiment: ABEL trap-based single-molecule diffusometry

B1: alkaline phosphatase from bovine intestinal mucosa, labeled with JF646 (enzyme, UniProt P19111 20-506, looked up)
chain: LVPVEEEDPAFWNRQAAQALDVAKKLQPIQTAAKNVILFLGDGMGVPTVTATRILKGQMNGKLGPETPLAMDQFPYVALSKTYNVDRQVPDSAGTATAYLCGVKGNYRTIGVSAAARYNQCKTTRGNEVTSVMNRAKKAGKSVGVVTTTRVQHASPAGAYAHTVNRNWYSDADLPADAQMNGCQDIAAQLVNNMDIDVILGGGRKYMFPVGTPDPEYPDDASVNGVRKRKQNLVQAWQAKHQGAQYVWNRTALLQAADDSSVTHLMGLFEPADMKYNVQQDHTKDPTLQEMTEVALRVVSRNPRGFYLFVEGGRIDHGHHDDKAYMALTEAGMFDNAIAKANELTSELDTLILVTADHSHVFSFGGYTLRGTSIFGLAPSKALDSKSYTSILYGNGPGYALGGGSRPDVNDSTSEDPSYQQQAAVPQASETHGGEDVAVFARGPQAHLVHGVEEETFVAHIMAFAGCVEPYTDCNLPAPTTATSIPD
modifications: JF646 dye, attached by amine-NHS chemistry (nonspecific labeling; one or two dyes per molecule seen)
  stoichiometry N: 2
